# Source: US20050196844A1
# Molecular target: taxol stabilized microtubules prepared from phosphocellulose purified tubulin
# Assay: co-sedimentation with taxol stabilized microtubules through a sucrose cushion, Western blot of pellet and supernatant
row,binding efficiency [%],Substance
1,50,"E. coli synthesized tau (352 residue isoform), non-phosphorylated (from UniProt P10636 2-758)"
2,50,E. coli synthesized tau (352 residue isoform) phosphorylated in vitro by fyn (from UniProt P10636 2-758)
